Reference: paper doi:10.1101/228536 (bioRxiv, 2017)

T1: Med15 ABD1,2,3 (Med15 158-651 Δ239-272, Δ373-483) (yeast, UniProt P19659 158-651, Δ239-272 | Δ373-483)
T1 sequence (looked up): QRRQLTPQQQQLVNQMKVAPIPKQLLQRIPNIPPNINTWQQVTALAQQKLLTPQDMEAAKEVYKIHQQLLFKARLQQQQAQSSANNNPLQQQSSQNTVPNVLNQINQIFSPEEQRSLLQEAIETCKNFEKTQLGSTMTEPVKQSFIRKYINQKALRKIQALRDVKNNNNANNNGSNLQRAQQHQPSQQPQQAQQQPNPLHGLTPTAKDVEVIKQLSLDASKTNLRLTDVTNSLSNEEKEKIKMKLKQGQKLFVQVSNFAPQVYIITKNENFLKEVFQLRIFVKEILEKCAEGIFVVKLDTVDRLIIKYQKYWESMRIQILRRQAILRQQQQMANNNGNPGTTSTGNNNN

T2: Med15 KIX+ABD1,2,3 (Med15 1-651 Δ239-272, Δ373-483) (yeast, UniProt P19659 1-651, Δ239-272 | Δ373-483)
T2 sequence (looked up): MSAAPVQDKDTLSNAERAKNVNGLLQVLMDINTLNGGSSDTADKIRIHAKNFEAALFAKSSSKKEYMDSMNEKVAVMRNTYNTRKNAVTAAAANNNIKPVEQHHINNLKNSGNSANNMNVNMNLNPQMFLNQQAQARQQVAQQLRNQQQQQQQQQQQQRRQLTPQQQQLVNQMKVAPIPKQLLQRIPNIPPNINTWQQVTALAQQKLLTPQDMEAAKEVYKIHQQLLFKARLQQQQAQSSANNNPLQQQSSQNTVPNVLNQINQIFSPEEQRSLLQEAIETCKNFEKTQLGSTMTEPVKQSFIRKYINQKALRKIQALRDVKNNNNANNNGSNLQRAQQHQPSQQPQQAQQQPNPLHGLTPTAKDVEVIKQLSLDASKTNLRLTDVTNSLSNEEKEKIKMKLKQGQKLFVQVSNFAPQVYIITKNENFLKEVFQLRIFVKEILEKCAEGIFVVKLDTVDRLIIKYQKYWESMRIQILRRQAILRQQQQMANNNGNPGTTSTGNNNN

T3: Med15 ABD3 (Med15 484-651) (yeast, UniProt P19659 484-651)
T3 sequence (looked up): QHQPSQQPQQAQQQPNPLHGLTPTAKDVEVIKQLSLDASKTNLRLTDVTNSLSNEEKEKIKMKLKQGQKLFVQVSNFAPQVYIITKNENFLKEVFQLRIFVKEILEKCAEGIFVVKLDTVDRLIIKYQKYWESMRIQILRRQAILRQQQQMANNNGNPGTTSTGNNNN

T4: Med15 ABD2 (Med15 277-368) (yeast, UniProt P19659 277-368)
T4 sequence (looked up): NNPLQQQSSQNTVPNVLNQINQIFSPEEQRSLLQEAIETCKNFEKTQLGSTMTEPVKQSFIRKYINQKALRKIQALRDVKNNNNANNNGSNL

B1: Med15 ABD1 (Med15 158-238) (domain or fragment, yeast, UniProt P19659 158-238, looked up)
chain: QRRQLTPQQQQLVNQMKVAPIPKQLLQRIPNIPPNINTWQQVTALAQQKLLTPQDMEAAKEVYKIHQQLLFKARLQQQQAQ
B2: Oregon Green-labeled Ino2 1-41-(GS)3-96-160 (domain or fragment, yeast)
chain: MQQATGNELLGILDLDNDIDFETAYQMLSSNFDDQMSAHIHGSGSGSPHQPSMGFDQALGLKLSPSSSGLLSTNESNAIEQFLDNLISQDMMSSNASMNSESHLHIRSPKKQ
modifications: Oregon Green 488 dye, N-terminal fluorescent label
B3: Ino2 1-41-(GS)3-96-160 (domain or fragment, yeast)
chain: B2 chain
B4: Met4 72-160 (domain or fragment, yeast, UniProt P32389 72-160, looked up)
chain: VTNRGNTNLYDHAVTPEILLEQLAYVDNFIPSLDNEFSNVDWNVNTTHNNANNNGADTFSSINANPFDLDEQLAIELSAFADDSFIFPD
B5: Oregon Green-labeled Met4 72-160 (domain or fragment, yeast, UniProt P32389 72-160, looked up)
chain: B4 chain
modifications: Oregon Green 488 dye, N-terminal fluorescent label

Key:
Met4 72-160 = molecular target: B4; test: ITC
[1] = molecular target: T1, Med15 ABD1,2,3 (Med15 158-651 Δ239-272, …); test: fluorescence polarisation
[2] = molecular target: T2, Med15 KIX+ABD1,2,3 (Med15 1-651 …); test: fluorescence polarisation
[3] = molecular target: T3, Med15 ABD3 (Med15 484-651); test: fluorescence polarisation
[4] = molecular target: T4, Med15 ABD2 (Med15 277-368); test: ITC
[5] = molecular target: T3, Med15 ABD3 (Med15 484-651); test: ITC
[6] = molecular target: T2, Med15 KIX+ABD1,2,3 (Med15 1-651 …); test: cross-linking

| Kd [1] [nM] | Kd [2] [nM] | binding result [3] | Kd [4] [nM] | Kd [5] [nM] | Binder | also measured |
| --- | --- | --- | --- | --- | --- | --- |
| – | – | – | – | – | B1 | binding result (Met4 72-160): binds |
| ~300 | 210 | binds | – | – | B2 | – |
| – | – | – | 34000 | 7800 | B3 | – |
| – | – | – | 20000 | 1360 | B4 | binding result [6]: binds |
| ~300 | 196 | binds | – | – | B5 | – |
